Source: article PMC7883056 (The EMBO Journal, 2021)

Biological target: T1, N-GST-tagged Ythdf (full length) (Drosophila melanogaster, UniProt Q9VBZ5 1-700)
T1 sequence: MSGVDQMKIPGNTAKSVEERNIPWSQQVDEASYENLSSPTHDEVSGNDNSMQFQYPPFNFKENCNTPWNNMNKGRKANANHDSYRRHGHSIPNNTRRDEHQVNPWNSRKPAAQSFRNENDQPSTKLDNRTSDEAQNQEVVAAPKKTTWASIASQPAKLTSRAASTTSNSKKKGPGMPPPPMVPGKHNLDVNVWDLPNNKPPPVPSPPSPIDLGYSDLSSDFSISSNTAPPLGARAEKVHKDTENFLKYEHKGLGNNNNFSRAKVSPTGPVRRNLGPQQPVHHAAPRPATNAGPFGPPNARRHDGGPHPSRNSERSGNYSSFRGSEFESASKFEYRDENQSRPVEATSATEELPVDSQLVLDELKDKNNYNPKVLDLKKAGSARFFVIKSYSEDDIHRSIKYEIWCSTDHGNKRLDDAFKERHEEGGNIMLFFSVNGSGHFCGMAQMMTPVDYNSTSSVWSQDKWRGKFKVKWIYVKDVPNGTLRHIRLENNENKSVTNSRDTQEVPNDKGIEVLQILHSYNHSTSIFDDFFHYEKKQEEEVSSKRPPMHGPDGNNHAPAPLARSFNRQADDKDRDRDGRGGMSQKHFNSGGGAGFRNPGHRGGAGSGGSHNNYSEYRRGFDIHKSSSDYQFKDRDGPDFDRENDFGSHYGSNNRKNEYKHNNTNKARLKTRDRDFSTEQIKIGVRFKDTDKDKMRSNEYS
Assay: pull-down

B1: N-His6-tagged NT-Fmr1 (220-684) (domain or fragment)
chain: not shown
B1: binds.
